Assay results from the DeepSol protein solubility set.

Experiment: soluble on expression in E. coli; label from the status in PepcDB or PDB records

Sequence: GSHMKNPYSNQIEREELILKYLPLVKAIATNIKKHLPEDVDIRDLISYGVIGLIKAVDNLSTENPKRAEAYIKLRIKGAIYDYLRSLDFGSRQVREKERRIKEVVEKLKEKLGREPTDEEVAKELGISTEELFKTLDKINFSYILSLEEVFRDFARDYSELIPSSTNVEEEVIKRELTEKVKEAVSKLPEREKLVIQLIFYEELPAKEVAKILETSVSRVSQLKAKALERLREMLSNPL
- soluble on expression in E. coli: soluble

Sequence: MTIEDTVIKLIGSLKDPLLDLTGKEMNLQYKITTSNQAMHVVLTAGYPTSLLETSYKPIVQKIVQDEFPNYQVTISIQQFIKAHKTQLTGKALRGVKNTIAVASGKGGVGKSTVTVNLAAALAKLGARVGILDADIYGPSIPLMLGETKPVQVKDNCYIPVEAHGMQAMSIGYLTDTNQALIWRGPMLAKSLIQMLDITLWNELDYLFIDLPPGTGDIQLTLVQKIPLTSAIVVTTPQNVATLDAQKAITMFSRTGIDVLGIIENMSTHICSHCGHQEAIFGRGGAAALCDAYQCTLLGQLPLDSHVRRHCDEGVPTATHSSNQLTDTFIKTAMRTAIELSKKPINYADRFPKIVVEAAALEHHHHHH
- soluble on expression in E. coli: soluble

Sequence: MFLQSNEHVGTYYAAVNPELIQPRQALEGDLDCEVLVVGAGFSGLHTALRLVEGGRQVCVIEASRIAWAASGRNGGQALPGWSSDLPPLEADLGYEGARRLWDGMLWAAGEMRELPQRHGFDCDYRVGHLWTAILPRRVGLLYDWQAEANRRWGYEGLRFVAKDELPEWIASERYLAGLYDPHAAHLNPLKLAFGLAAAIERAGGRIHERTRALNYREEGDGYRVRTEHGEIRCAALVLACNAYIDGLDSELSQRMLPVGTYQVATEPLGEERAKSLLPRNCCVTDNQFVLDYFRLTPDHRLLFGGGCTYLGGMPSDIRAATRPYLERVFPQLRGVALEYAWGGHIDCSMRRTPDIGRQGNRYWLQGYSGHGVLPSLAAARAVSDALLGDDETLALYQRLRNPKFPGGQRFAAPLEALGKAYYRLRDLFLEHHHHHH
- soluble on expression in E. coli: not soluble

Sequence: MGSDKIHHHHHHMKRSGKVYIIGAGPGEEELITLKAIRKMKECTAVLYDRLVGQGILKYLNEKCEIYYCGKEPGCHYKTQDEINEMIIKLAKEGHIVGRIKGGDPYIFGRGGEEGLSLLKENIEFEVISGVTSPVAVLNYAGIPVTHRGIARSFHVFTAKTANDDSINFSAAAKIDGTLIFLMGYRQLNDITRKLIENGMDSKMPCAVVMRGTTSLQKKVIGNLSDIKEKCDNANMTSPCIIVVGKVVGFNQQLNWYEKKPLFGRNICITRSKNQSKTMREELLDLGAEVTEVHSIEIENTASNLEEYINKISEYDYIILTSVNAVEVLFDYLASKDYDVRKVRAKFAVIGNATKEALKKRGIVPEIVSRKHNGEGLFDEIRGYLKKDDKIFIPRSENSRKYIKEQLVSLGLSVDECFIYRTVPGKLYDKAAFENADTIVFTSPSTVKNMIALFGEKNIKKKSIIAIGPITGRELGKINAEYSTCSECSVDAIIRECLNSDK
- soluble on expression in E. coli: not soluble

Sequence: SLIKFLSALILLLVTTAAQAERIRDLTSVQGVRQNSLIGYGLVVGLDGTGDQTTQTPFTTQTLNNMLSQLGITVPTGTNMQLKNVAAVMVTASLPPFGRQGQTIDVVVSSMGNAKSLRGGTLLMTPLKGVDSQVYALAQGNILVGGAGASAGGSSVQVNQLNGGRITNGAVIERELPSQFGVGNTLNLQLNDEDFSMAQQIADTINRVRGYGSATALDARTIQVRVPSGNSSQVRFLADIQNMQVNVTPQDAKVVINSRTGSVVMNREVTLDSCAIAQGNLSVTVNRQANVSQPDTPFGGGQTVVTPQTQIDLRQSGGSLQSVRSSASLNNVVRALNALGATPMDLMSILQSMQSAGCLRAKLEII
- soluble on expression in E. coli: not soluble

Sequence: MHHHHHHSSGRENLYFQGKLPEPQFYAEPHTYEEPGRAGRSFTREIEASRIHIEKIIGSGDSGEVCYGRLRVPGQRDVPVAIKALKAGYTERQRRDFLSEASIMGQFDHPNIIRLEGVVTRGRLAMIVTEYMENGSLDTFLRTHDGQFTIMQLVGMLRGVGAGMRYLSDLGYVHRDLAARNVLVDSNLVCKVSDFGLSRVLEDDPDAAYTTTGGKIPIRWTAPEAIAFRTFSSASDVWSFGVVMWEVLAYGERPYWNMTNRDVISSVEEGYRLPAPMGCPHALHQLMLDCWHKDRAQRPRFSQIVSVLDALIRSPESLRATATVS
- soluble on expression in E. coli: soluble

Sequence: MCQFIETIRIEDGQVYNLSYHTARMNRTRAAFWKEAAPIDLSGFISPPSLSGIWKCRIVYDKEIEEVGYTPYQMRMVSSLRPVASDTIDYSYKSTNREELNDLFARRGKADDILIVKDGYLTDTSIANIALYDGHTWYTPAHPLLQGTKRAELLDNRFIVEKDIRQAQLGDYSHIMLFNAMIDWKRLIIPVNEKYFIL
- soluble on expression in E. coli: not soluble

Sequence: MSESRLLTLRDYIRWAVSRFHAAGLFFGHGTDNAWDEARHLVLGSLHLPWEISDSYLDCRLEDDERAELAEILRRRIEERIPAAYLLGEAWFCGIPFSVDERVLVPRSPIAELIEQRFAPWLPAEPARILDLCTGSGCIGIACAYAFEQAEVVLADLSFDALEVANVNIERHDLGERVYTVQGDGFAGLPGQRFDLIVSNPPYVDAEDFADMPAEFHHEPELGLACGDDGLDLVRRMLAEAADHLSEKGLLIVEVGNSEVHVQALYPEVDFTWLEFEHGGHGVFMLSAAQCREHRELFRSRLEK
- soluble on expression in E. coli: not soluble

Sequence: MGHHHHHHSHMAGWIQAQQLQGDALRQMQVLYGQHFPIEVRHYLAQWIESQPWDAIDLDNPQDRAQATQLLEGLVQELQKKAEHQVGEDGFLLKIKLGHYATQLQKTYDRCPLELVRCIRHILYNEQRLVREANNCSSP
- soluble on expression in E. coli: not soluble
